From US20220160939A1, “SELF-ASSEMBLING PEPTIDES AS BRONCHIAL OBSTRUCTION AGENTS” (3-D MATRIX, LTD., priority 2014, published 2022)

Columns and labels:
Format in all cases: physicochemical
[1] = Rheological measurements of RADA16 with NaCl, KCl, CaCl2 (stiffness, reversibility)
Experimental: In a rheological comparison of […] (SEQ ID NO:1)+NaCl, KCl, and CaCl2), solutions of 0.5% RADA16 (SEQ ID NO:1) mixed with 0.005, 0.05, 0.125, 0.25, 0.5, and 1 M NaCl, KCl, and CaCl2) were prepared. The anion, chloride (Cl−), was kept the same to observe the effect of the cations, sodium (Na+), potassium (K+), and calcium (Ca2+). FIG. 21 provides a basic understanding of how varying the cations of a salt solution effects the viscoelastic properties and the stiffness of self-assembling peptides. […] This should be because Ca has […] higher ionic strength than Na and K at the same molar concentrations. Therefore, influence of salts on the peptide solution is more related to their ionic strength rather than their molar concentration, as shown in FIGS. 17-18 and Table 2a-c. In some embodiments, there is a correlation between the properties of the peptide solutions with salts based on the concentration of the salt.
Rheological measurements of stiffness of 2.5% RADA16 (SEQ ID NO:1) and 2.5% RADA16 (SEQ ID NO:1)+0.25 M CaCl2) was evaluated.
Rheological measurements of reversibility of 0.5% RADA16 (SEQ ID NO:1) solution with +0.125, 0.25, and 0.5 M CaCl2) were evaluated. Solutions of 0.5% RADA16 (SEQ ID NO:1) mixed with 0.125, 0.25, and 0.5 M CaCl2) were prepared. The structure of the self-assembled peptide solutions were disrupted thoroughly by application of mechanical stress through vortexing and sonication. The mixtures were placed at room temperature for 48 hours to allow self-assembly to take place. […] FIG. 23A presents raw rheological data of the control peptide solution with salts and the perturbed peptide solution while FIG. 23B provides a comparison of stiffness of the control peptide solution and the perturbed peptide solution.

[2] = Gelation kinetics of 0.5% RADA16 treated with cations and anions
Experimental: Rheological measurements of gelation kinetics of 0.5% RADA16 (SEQ ID NO:1)+NaCl, KCl, and CaCl2) were evaluated. A solution of 0.5% RADA16 (SEQ ID NO:1) was prepared and gelation kinetics were observed by treatment with several cations (e.g., Nat, Ca^2+, K^+) and anions (e.g., Cl^−, CO3^2−, PO4^3−, SO4^2−). It was determined how long it will take for the peptide mixtures to gel and how to control that gelation time by varying the cation/anion type and concentration. […] In vivo and in vitro qualitative experiments and the resulting observations were supportive of these conclusions.

[3] = Rheological properties of 1% peptides before and after DMEM treatment for 2 minutes; settings: peptides 1%; DMEM 2 minutes; compared with weaker peptide solutions (i.e., PuraMatrix)
Experimental: The effects of Dulbecco's modified Eagle's medium (DMEM) (pH 7.4) on the rheological properties of IEIK13 (SEQ ID NO:2), KLD12 (SEQ ID NO:3), and PuraMatrix® (SEQ ID NO:1) were evaluated on a rheometer (AR500, TA Instruments) with 40 mm plates. DMEM is generally a cell culture medium that contains 6.4 g/L of NaCl, 3.4 g/L NaHCO3 (sodium bicarbonate), minor amounts of other salts, various amino acids, and 4.5 g/L of glucose. The pH level of DMEM is generally 7.2±0.2 and the osmolality is 335±30 mOsm/Kg H2O; both measurements are close to human physiological fluids such as blood.
Peptide solutions (1%) were kept at 4° C. for at least 48 hours before testing. To perform the experiment, 1 mL of peptide solution was gently pipetted and placed on the plate of the rheometer. 2 mL of DMEM solution was gently added around the peptide solution. The peptide solution was treated with DMEM for two minutes, then the media was removed, and the plates were placed at a measuring geometry gap at around 450 μm. Measurements were performed at 37° C. after 2 min of relaxation time. Frequency tests were performed from 1 rad/s to 100 rad/s at 1 Pa of oscillation stress.
The rheological properties of the peptides (1%) were compared before and after DMEM treatment for 2 minutes, as shown in FIG. 1A. […]

For “Arg-Ala-Asp-Ala-Arg-Ala-Asp-Ala-Arg-Ala-Asp-Ala-Arg-Ala-Asp-Ala [PuraMatrix ®]”, the “enhancement of stiffness by Ca compared to Na or K” value ([1]; 0.5% RADA16, chloride salts at the same molar concentrations) was “best enhancement of stiffness”, the “stiffness with added cation solution versus without” value ([1]; 2.5% RADA16 with addition of 0.125 M CaCl2) was “noticeable increase in stiffness” and the storage modulus ([1]; about 0.5 w/v percent, calcium chloride about 0.125 M) was “about 25 Pa”. The storage modulus ([1]; about 0.5 w/v percent, calcium chloride about 0.250 M) was “about 44 Pa”, the storage modulus ([1]; about 0.5 w/v percent, calcium chloride about 0.500 M) was “about 52 Pa” and the storage modulus ([1]; about 2.5 w/v percent, calcium chloride about 0.125 M) was “about 600 Pa”. The “gelation speed by anion” value ([2]; chloride) was “quickest gelation” and the “gelation speed by anion” value ([2]; sulfate) was “slowest gelation”.
For “Ile-Glu-Ile-Lys-Ile-Glu-Ile-Lys-Ile-Glu-Ile-Lys-Ile [IEIK13]”, the “fold increase of storage modulus after DMEM treatment” value [3] was “lower-fold increase”.
